One substance from article PMC7833764 can be followed below.

For test [1], the target named is human CD3 epsilon (CD3ε) (Homo sapiens) (UniProt P07766).
Test [2] concerns the target human GUCY2C (guanylyl cyclase 2C), recombinant protein (human) (UniProt P25092).
Sequence of UniProt P25092 (P25092 24-1073): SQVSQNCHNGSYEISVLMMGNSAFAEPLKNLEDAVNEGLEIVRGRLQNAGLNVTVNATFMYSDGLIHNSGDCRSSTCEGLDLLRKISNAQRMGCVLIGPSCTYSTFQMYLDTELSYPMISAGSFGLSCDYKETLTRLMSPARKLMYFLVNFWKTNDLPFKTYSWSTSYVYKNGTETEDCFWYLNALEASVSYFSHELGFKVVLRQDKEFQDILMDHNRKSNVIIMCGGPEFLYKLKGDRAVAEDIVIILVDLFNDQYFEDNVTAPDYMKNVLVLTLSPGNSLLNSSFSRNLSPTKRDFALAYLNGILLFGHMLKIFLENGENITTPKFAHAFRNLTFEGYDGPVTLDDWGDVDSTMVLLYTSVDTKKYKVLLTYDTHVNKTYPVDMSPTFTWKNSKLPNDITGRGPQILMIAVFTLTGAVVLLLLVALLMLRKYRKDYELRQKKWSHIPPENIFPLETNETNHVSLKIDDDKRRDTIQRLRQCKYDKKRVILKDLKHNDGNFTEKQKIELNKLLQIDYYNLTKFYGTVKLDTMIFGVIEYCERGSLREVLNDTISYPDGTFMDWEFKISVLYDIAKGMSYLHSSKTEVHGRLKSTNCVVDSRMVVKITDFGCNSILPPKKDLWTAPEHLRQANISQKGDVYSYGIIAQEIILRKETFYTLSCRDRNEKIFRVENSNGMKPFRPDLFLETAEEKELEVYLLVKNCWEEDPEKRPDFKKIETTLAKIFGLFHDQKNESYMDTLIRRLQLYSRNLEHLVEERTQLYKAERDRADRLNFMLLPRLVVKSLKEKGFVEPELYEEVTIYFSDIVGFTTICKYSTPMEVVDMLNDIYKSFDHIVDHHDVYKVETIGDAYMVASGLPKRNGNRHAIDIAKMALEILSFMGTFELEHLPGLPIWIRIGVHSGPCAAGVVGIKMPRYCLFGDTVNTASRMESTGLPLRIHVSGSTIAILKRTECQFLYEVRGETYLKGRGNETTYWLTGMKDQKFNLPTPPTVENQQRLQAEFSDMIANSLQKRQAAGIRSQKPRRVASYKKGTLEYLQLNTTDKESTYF

Sequence of UniProt P07766 (P07766 23-207): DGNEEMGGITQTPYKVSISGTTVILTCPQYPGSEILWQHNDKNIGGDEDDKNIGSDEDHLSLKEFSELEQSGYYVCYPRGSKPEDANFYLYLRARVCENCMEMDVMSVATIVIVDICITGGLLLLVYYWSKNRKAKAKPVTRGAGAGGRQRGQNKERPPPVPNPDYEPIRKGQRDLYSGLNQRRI

For “PF-07062119, anti-GUCY2C x anti-CD3ε T cell bispecific antibody (diabody-Fc)”, the fold lower affinity than GUCY2C-0247 was 7.2 fold in test [1] and 2.5 fold in test [2].
